Measured values reported in patent publication US10712339B2, “Engineering of a novel breast tumor microenvironment on a microfluidic chip” (Arizona Board of Regents on behalf of Arizona State …, priority 2014, dated 2020).

Test system: SUM-159 breast cancer cells
Assay: Chemoinvasion of breast cancer cells in the microfluidic platform
Format: cell-based
Protocol: We encapsulated highly invasive SUM-159 breast cancer cells within our platform. Cells were encapsulated in a mixture of Collagen:Matrigel at a ratio of 1:1 (final collagen density is 1 mg/mL) and the solution was injected into the tumor region while cell-free collagen type I (2 mg/mL) was injected into the stromal region. In one platform, 50 ng/mL of epidermal growth factor (EGF) was injected to the side channels to stimulate chemoinvasion, while in a control platform, no EGF was injected. We observed the migration of the cells throughout the stromal region over the course of four days in both conditions.
There was noticeable collagen deformation showing that the cells are actively sensing their biophysical environment and reacting to it. […] Cells without EGF stimulation did invade as well but not by the same distance.

[1] = 50 ng/mL EGF vs -EGF control, day 4

B1: EGF: epidermal growth factor injected to the side channels to stimulate chemoinvasion (protein, UniProt P01133 23-1207, looked up)
Pro-epidermal growth factor: PQHWSCPEGTLAGNGNSTCVGPAPFLIFSHGNSIFRIDTEGTNYEQLVVDAGVSVIMDFHYNEKRIYWVDLERQLLQRVFLNGSRQERVCNIEKNVSGMAINWINEEVIWSNQQEGIITVTDMKGNNSHILLSALKYPANVAVDPVERFIFWSSEVAGSLYRADLDGVGVKALLETSEKITAVSLDVLDKRLFWIQYNREGSNSLICSCDYDGGSVHISKHPTQHNLFAMSLFGDRIFYSTWKMKTIWIANKHTGKDMVRINLHSSFVPLGELKVVHPLAQPKAEDDTWEPEQKLCKLRKGNCSSTVCGQDLQSHLCMCAEGYALSRDRKYCEDVNECAFWNHGCTLGCKNTPGSYYCTCPVGFVLLPDGKRCHQLVSCPRNVSECSHDCVLTSEGPLCFCPEGSVLERDGKTCSGCSSPDNGGCSQLCVPLSPVSWECDCFPGYDLQLDEKSCAASGPQPFLLFANSQDIRHMHFDGTDYGTLLSQQMGMVYALDHDPVENKIYFAHTALKWIERANMDGSQRERLIEEGVDVPEGLAVDWIGRRFYWTDRGKSLIGRSDLNGKRSKIITKENISQPRGIAVHPMAKRLFWTDTGINPRIESSSLQGLGRLVIASSDLIWPSGITIDFLTDKLYWCDAKQSVIEMANLDGSKRRRLTQNDVGHPFAVAVFEDYVWFSDWAMPSVMRVNKRTGKDRVRLQGSMLKPSSLVVVHPLAKPGADPCLYQNGGCEHICKKRLGTAWCSCREGFMKASDGKTCLALDGHQLLAGGEVDLKNQVTPLDILSKTRVSEDNITESQHMLVAEIMVSDQDDCAPVGCSMYARCISEGEDATCQCLKGFAGDGKLCSDIDECEMGVPVCPPASSKCINTEGGYVCRCSEGYQGDGIHCLDIDECQLGEHSCGENASCTNTEGGYTCMCAGRLSEPGLICPDSTPPPHLREDDHHYSVRNSDSECPLSHDGYCLHDGVCMYIEALDKYACNCVVGYIGERCQYRDLKWWELRHAGHGQQQKVIVVAVCVVVLVMLLLLSLWGAHYYRTQKLLSKNPKNPYEESSRDVRSRRPADTEDGMSSCPQPWFVVIKEHQDLKNGGQPVAGEDGQAADGSMQPTSWRQEPQLCGMGTEQGCWIPVSSDKGSCPQVMERSFHMPSYGTQTLEGGVEKPHSLLSANPLWQQRALDPPHQMELTQ
modifications: Pro-epidermal growth factor
notes: epidermal growth factor injected to the side channels to stimulate chemoinvasion
**Q.** How did the “invasion distance into the stromal region” value (50 ng/mL EGF in side channels vs -EGF control, by day 3) turn out when B1 was run?
**A.** invaded further

**Q.** What about the “cell count as a function of migration distance” value [1] of the same molecule?
**A.** more cells had migrated a greater distance

**Q.** And the “number of cells in the media channels” value [1]?
**A.** a higher number of cells were seen in the channels
